The values below are quoted from earlier work in article PMC11854596.

For this data set, the target named is 53BP1 BRCT (Homo sapiens) (UniProt Q12888).
Sequence of 53BP1 BRCT (Homo sapiens) (Q12888 1714-1972): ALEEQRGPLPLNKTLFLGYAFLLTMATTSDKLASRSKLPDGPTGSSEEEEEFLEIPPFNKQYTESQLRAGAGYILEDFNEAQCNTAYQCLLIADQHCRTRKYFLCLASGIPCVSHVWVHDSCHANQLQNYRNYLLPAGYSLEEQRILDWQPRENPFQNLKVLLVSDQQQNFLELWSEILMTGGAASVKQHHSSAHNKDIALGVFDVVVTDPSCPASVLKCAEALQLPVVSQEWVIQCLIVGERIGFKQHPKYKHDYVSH

On to γH2AX (from UniProt P16104), for which the Kd is 2.7 µM.

Usually Kd stands for the equilibrium constant for the complex coming apart.
